For the experiment, the target named is Human MMP-12(ΔC) (human, UniProt P39900 106-263). Kind of experiment: enzyme inhibition kinetics.

The results in this text go back to article PMC2804306 (Biopolymers, 2008).

Human MMP-12(ΔC), sequence (P39900 106-263, stated change not applied): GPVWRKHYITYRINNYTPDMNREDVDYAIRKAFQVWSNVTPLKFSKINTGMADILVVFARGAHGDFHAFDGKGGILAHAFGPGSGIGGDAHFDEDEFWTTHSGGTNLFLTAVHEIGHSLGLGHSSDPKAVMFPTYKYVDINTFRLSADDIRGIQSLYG

B1: N-TIMP-1, N-terminal inhibitory domain of tissue inhibitor of metalloproteinases 1 (active form, free alpha-amino group of Cys1) (domain or fragment)
chain: not shown
B1: the Ki is around 1.5 nM and the “stoichiometry N” value worked out at 1.05 molar equivalents.
